According to article PMC3914216:

B1: CG10 (dsDNA)
DNA 1: GGGCCCCCCCCCCCGCGGCGGCCCCGCG
DNA 2: CGCGGGGCCGCCGCGGGGGGGGGGGCCC
B2: ATs10 (dsDNA)
DNA 1: GGGTTTTTTTTTTCGCGGCGGCCCCGCG
DNA 2: CGCGGGGCCGCCGCGAAAAAAAAAACCC
modifications: phosphorothioate linkages after each of the 10 T (T4-T13) of strand 1; complement unmodified
B3: ATf10 (dsDNA)
DNA 1: CGCGGGGCCGCCGCGAAAAAAAAAAACCC
DNA 2: GGGTTTTTTTTTTTCGCGGCGGCCCCGCG
B4: Mix10 (dsDNA)
DNA 1: GGGCGTGACTGAGCGCGGCGGCCCCGCG
DNA 2: CGCGGGGCCGCCGCGCTCAGTCACGCCC

How the values were obtained:
HMGA1b [1] = molecular target: T1, HMGA1b (UniProt P17096-2 1-96); assay: competition
HMGA1b [2] = molecular target: T1, HMGA1b; assay: competition; remark: listed apart in the source
HMGA1b [3] = molecular target: T1, HMGA1b; assay: EMSA

Binder | binding result (HMGA1b [1]) | further results
B1 | no binding | –
B2 | – | binding signal (HMGA1b [2]): ~1 ratio to ATf10
B3 | – | binding result (HMGA1b [3]): binds
B4 | no binding | –
